Experiment [1] deals with heteropentameric α1β wild type glycine receptor (rat) (UniProt P07727).
Experiment [2] addresses heteropentameric α1β mutated (α1βY240A) glycine receptor (rat) (UniProt P07727).

For “Interleukin-1β (from UniProt P01584 117-269) (ligand)”, the current decay time constant (τ) of glycine (50 μM)-activated currents after perfusion of IL-1β (10 ng/ml); whole-cell patch clamp, transfected HEK293T cells (Figure 4A) was determined as 35400 ms in experiment [1] and 3370 ms in experiment [2].

Source of the values: PMC7973117.
